We go through eight molecules from patent publication US20200317768A1 (published 2020).

Numbering of substitutions follows the chain as printed.

B1: M103205H795-MY525/M103202L889-SK1 (antibody, human IgG1, kappa)
heavy: QVTLKESGPVLVKPTETLTLTCTVSGIDLSHDDISWVRQAPGKGLEWVGIISYAGSTYYASWAKGRLTISKDTSKNQVVLTMTNMDPVDTATYYCARGVPAYSHGGDLWGQGTLVTVSSASTKGPSVFPLAPSSKSTSGGTAALGCLVKDYFPEPVTVSWNSGALTSGVHTFPAVLQSSGLYSLSSVVTVPSSSLGTQTYICNVNHKPSNTKVDKKVEPKSCDKTHTCPPCPTPELLTGPVVFLFPPKPKDTLMISRTPEVTCVVVDVSDEDPEVKFNWYVDGVEVHNAKTKPREEQYNSTYRVVSVLTVLHQDWLNGKEYKCKVSNKALPKPIEKTISKAKGQPREPQVYTLPPSREEMTKNQVSLTCLVKGFYPSDIAVEWESNGQPENNYKTTPPVLDSDGSFFLYSKLTVDKSRWQQGNVFSCSVMHEALHNHYTQKSLSLSP
light: DIVMTQSPATLSLSPGERATLSCTSSQSVYHANWLSWFQQKPGQPPKLLIYWASTLAYGVPSRFSGSGSGTDFTLTISSLQPEDAATYYCAGGYGGGRYAFGQGTKVEIKRTVAAPSVFIFPPSDEQLKSGTASVVCLLNNFYPREAKVQWKVDNALQSGNSQESVTEQDSKDSTYSLSSTLTLSKADYEKHKVYACEVTHQGLSSPVTKSFNRGEC
notes: Substitutions introduced into M103205H795-SG1, expressed with M103202L889-SK1 as light chain; EU numbering
B2: M103205H795-MY528/M103202L889-SK1 (antibody, human IgG1, kappa)
heavy: B1 heavy with T233A, L236W, V241S
light: B1 light
notes: as for B1
B3: M103205H795-MY529/M103202L889-SK1 (antibody, human IgG1, kappa)
heavy: B1 heavy with T233A, L236W, V241S, Q297L
light: B1 light
notes: as for B1
B4: M103205H795-MY530/M103202L889-SK1 (antibody, human IgG1, kappa)
heavy: B1 heavy with T233A, V241S, K328T
light: B1 light
notes: as for B1
B5: M103205H795-MY527/M103202L889-SK1 (antibody, human IgG1, kappa)
heavy: B1 heavy with V241S, Q297L
light: B1 light
notes: as for B1
B6: M103205H795-MY531/M103202L889-SK1 (antibody, human IgG1, kappa)
heavy: B1 heavy with T233A, L236W, V241S, K328T
light: B1 light
notes: as for B1
B7: M103205H795-MY532/M103202L889-SK1 (antibody, human IgG1, kappa)
heavy: B1 heavy with T233A, L236W
light: B1 light
notes: as for B1
B8: M103205H795-MY526/M103202L889-SK1 (antibody, human IgG1, kappa)
heavy: B1 heavy with Q297L
light: B1 light
notes: as for B1

T8 sequence (P08637 17-208 F176V): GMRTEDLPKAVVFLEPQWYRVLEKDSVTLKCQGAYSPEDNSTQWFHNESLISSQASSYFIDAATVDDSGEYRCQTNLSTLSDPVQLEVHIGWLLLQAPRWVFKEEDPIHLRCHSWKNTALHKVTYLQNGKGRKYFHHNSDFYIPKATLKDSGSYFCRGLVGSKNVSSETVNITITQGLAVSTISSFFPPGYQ

The target in the first assay is T1, cynomolgus monkey FcγRIIa1 extracellular domain with C-terminal His-tag (cynomolgus monkey).
T1 construct: also called cyno FcgRIIa1; cynoFcγRIIa1
T1 chain: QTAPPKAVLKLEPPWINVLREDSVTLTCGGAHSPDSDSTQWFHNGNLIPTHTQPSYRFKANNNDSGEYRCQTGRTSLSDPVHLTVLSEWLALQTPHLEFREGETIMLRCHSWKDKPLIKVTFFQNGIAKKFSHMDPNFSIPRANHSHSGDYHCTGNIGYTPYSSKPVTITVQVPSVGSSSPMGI
Briefly: SPR (BIACORE); KD of SG1 / KD of variant.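 Note: relative to parent M103205H795-SG1 carrying the SG1 human heavy chain constant region.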 A general note: SPR reads the build-up and loss of mass on a sensor chip optically.
Take B1: the “KD fold (SG1 = 1)” value came to 2 fold.
On the same count and under the same terms, to B2 belongs 2.3 fold.
For B3, the “KD fold (SG1 = 1)” value turned out to be 3.2 fold.
Turning to B4, the “KD fold (SG1 = 1)” value came to 2.3 fold.
Same read-out and setting: to B5 belongs 2.9 fold; to B6, 2.9 fold; to B7, 4.2 fold.
Turning to B8, the “KD fold (SG1 = 1)” value is 2.5 fold.

The target in the next assay is T2, cynomolgus monkey FcγRIIa2 extracellular domain with C-terminal His-tag (cynomolgus monkey).
T2 construct: also called cyno FcgRIIa2; cynoFcγRIIa2
T2 chain: T1 chain with P95T, T121A, I127K, A128S, K130N, D135N, R142Q
Briefly: SPR (BIACORE); KD of SG1 / KD of variant.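 Note: relative to parent M103205H795-SG1 carrying the SG1 human heavy chain constant region.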
For the molecule B1, the “KD fold (SG1 = 1)” value amounted to 4.6 fold.
Still for that read-out and setting: the result for B2 reads 3.4 fold; that for B3, 3.6 fold.
On the same count and under the same terms, to B4 belongs 4.6 fold; to B5, 3.5 fold; to B6, 3.5 fold.
On the same count and under the same terms, to B7 belongs 8.5 fold.
Turning to B8, the “KD fold (SG1 = 1)” value was 4.3 fold.

Another assay has as its target T3, cynomolgus monkey FcγRIIa3 extracellular domain with C-terminal His-tag (cynomolgus monkey).
T3 construct: also called cyno FcgRIIa3; cynoFcγRIIa3
T3 chain: T1 chain with P95T, T121A, A128S, H133P, D135N
Briefly: SPR (BIACORE); KD of SG1 / KD of variant.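 Note: relative to parent M103205H795-SG1 carrying the SG1 human heavy chain constant region.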
B1: the “KD fold (SG1 = 1)” value stood at 15.5 fold.
B2: the “KD fold (SG1 = 1)” value was 5.3 fold.
Same read-out and setting: to B3 belongs 5.3 fold; to B4, 6.8 fold; to B5, 5 fold.
On the same count and under the same terms, to B6 belongs 7.7 fold.
Same read-out and setting: the result for B7 reads 23 fold; that for B8, 13.1 fold.

For another assay, the target named is T4, cynomolgus monkey FcγRIIb extracellular domain with C-terminal His-tag (cynomolgus monkey).
T4 construct: also called cyno FcgRIIb; cynoFcγRIIb
T4 chain: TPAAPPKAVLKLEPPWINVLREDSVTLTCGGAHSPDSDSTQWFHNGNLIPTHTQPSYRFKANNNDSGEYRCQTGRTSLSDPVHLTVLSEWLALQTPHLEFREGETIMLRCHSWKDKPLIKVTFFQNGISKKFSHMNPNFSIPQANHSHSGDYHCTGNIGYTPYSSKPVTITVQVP
Briefly: SPR (BIACORE); KD of SG1 / KD of variant.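 Note: relative to parent M103205H795-SG1 carrying the SG1 human heavy chain constant region.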
As to B1, the “KD fold (SG1 = 1)” value came to 3.5 fold.
The same measure, in the same setting: to B2 belongs 4.4 fold; to B3, 6 fold.
Same read-out and setting: to B4 belongs 5.6 fold; to B5, 5 fold.
Same read-out and setting: to B6 belongs 6.7 fold; to B7, 7.8 fold; to B8, 3.9 fold.

A further assay addresses T5, cynomolgus monkey FcγRIIIaS extracellular domain with C-terminal His-tag (cynomolgus monkey, UniProt Q8SPW2 21-206 at identity 1.00)).
T5 construct: also called cyno FcgRIIIaS; cynoFcγRIIIaS
T5 chain: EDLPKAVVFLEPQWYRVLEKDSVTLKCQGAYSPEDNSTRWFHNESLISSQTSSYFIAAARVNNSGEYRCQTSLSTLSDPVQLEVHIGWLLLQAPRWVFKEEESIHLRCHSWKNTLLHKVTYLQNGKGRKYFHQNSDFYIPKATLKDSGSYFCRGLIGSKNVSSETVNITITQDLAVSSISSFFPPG
As to the kind of experiment: SPR (BIACORE); KD of SG1 / KD of variant.
With B1, the “KD fold (SG1 = 1)” value came out at 0.26 fold.
The same measure, in the same setting: the result for B2 reads 0.15 fold.
Consider B3, for which the “KD fold (SG1 = 1)” value turned out to be 0.16 fold.
The same measure, in the same setting: the result for B4 reads 0.42 fold.
Same read-out and setting: the result for B5 reads 0.24 fold.
Still for that read-out and setting: to B6 belongs 0.36 fold; to B7, 0.42 fold; to B8, 0.23 fold.

A further assay deals with T6, human FcγRIIaH extracellular domain with C-terminal His-tag (human, UniProt P12318 34-217).
T6 construct: also called human FcgRIIaH; FcγRIIa (type H)
T6 sequence: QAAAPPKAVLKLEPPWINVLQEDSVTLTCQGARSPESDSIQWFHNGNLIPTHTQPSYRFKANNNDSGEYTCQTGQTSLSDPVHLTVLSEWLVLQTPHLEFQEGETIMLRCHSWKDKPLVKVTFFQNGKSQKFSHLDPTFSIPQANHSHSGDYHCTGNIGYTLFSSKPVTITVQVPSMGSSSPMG
As to the kind of experiment: SPR (BIACORE); KD of SG1 / KD of variant.
For B1, the “KD fold (SG1 = 1)” value is 3.3 fold.
Consider B2, for which the “KD fold (SG1 = 1)” value turned out to be 2 fold.
Still for that read-out and setting: the result for B3 reads 3 fold; that for B4, 4.1 fold.
The same measure, in the same setting: to B5 belongs 6.3 fold; to B6, 2.4 fold.
Same read-out and setting: to B7 belongs 3.3 fold.
In the case of B8, the “KD fold (SG1 = 1)” value is 4.1 fold.

A further assay concerns the target T7, human FcγRIIb extracellular domain with C-terminal His-tag (human, UniProt P31994 43-217).
T7 construct: also called human FcgRIIb
T7 sequence: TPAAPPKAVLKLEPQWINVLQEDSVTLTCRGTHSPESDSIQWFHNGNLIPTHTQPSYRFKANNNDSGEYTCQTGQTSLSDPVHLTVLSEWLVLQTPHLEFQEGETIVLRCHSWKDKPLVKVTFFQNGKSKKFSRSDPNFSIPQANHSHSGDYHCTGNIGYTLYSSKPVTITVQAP
Briefly: SPR (BIACORE); KD of SG1 / KD of variant.
In the case of B1, the “KD fold (SG1 = 1)” value turned out to be 3.8 fold.
Same read-out and setting: to B2 belongs 2.1 fold.
On the same count and under the same terms, to B3 belongs 3.3 fold; to B4, 2.5 fold; to B5, 3.5 fold.
Regarding B6, the “KD fold (SG1 = 1)” value is 3.2 fold.
With B7, the “KD fold (SG1 = 1)” value was determined as 5.5 fold.
Take B8: the “KD fold (SG1 = 1)” value was found to be 3.8 fold.

A further assay has as its target T8, human FcγRIIIaV extracellular domain with C-terminal His-tag (human, UniProt P08637 17-208).
T8 construct: also called human FcgRIIIaV
As to the kind of experiment: SPR (BIACORE); KD of SG1 / KD of variant.
Turning to B1, the “KD fold (SG1 = 1)” value came out at 0.19 fold.
On the same count and under the same terms, the result for B2 reads 0.19 fold; that for B3, 0.2 fold.
On the same count and under the same terms, the result for B4 reads 0.23 fold; that for B5, 0.18 fold.
Still for that read-out and setting: the result for B6 reads 0.25 fold.
Consider B7, for which the “KD fold (SG1 = 1)” value stood at 0.43 fold.
Same read-out and setting: the result for B8 reads 0.19 fold.
